For one molecule, Kd, koff and kon results are on record in patent US20200048345A1 (INNATE PHARMA, published 2020).

One may read the Kd as the concentration at which binding is half-saturated. Broadly, the koff is the first-order rate constant of dissociation. As a reminder, the kon is a measure of how fast the partners come together.

The target in assay [1] is T1, Human NKp46 recombinant protein (human, UniProt O76036 22-258, limits assumed).
T1 construct: Soluble analyte in SPR; also called recombinant human NKp46 proteins
In words: SPR (Biacore T100), captured on Protein-A chip, recombinant human NKp46 6.25-400 nM, 1:1 kinetic model. The method, then:
SPR measurements were performed on a Biacore T100 apparatus (Biacore GE Healthcare) at 25° C. In all Biacore experiments HBS-EP+ (Biacore GE Healthcare) and NaOH 10 mM served as running buffer and regeneration buffer respectively. Sensorgrams were analyzed with Biacore T100 Evaluation software. Protein-A was purchased from (GE Healthcare). Human NKp46 recombinant proteins were cloned, produced and purified at Innate Pharma.
Protein-A proteins were immobilized covalently to carboxyl groups in the dextran layer on a Sensor Chip CMS. The chip surface was activated with EDC/NHS (N-ethyl-N′-(3-dimethylaminopropyl) carbodiimidehydrochloride and N-hydroxysuccinimide (Biacore GE Healthcare)). Protein-A was diluted to 10 μg/ml in coupling buffer (10 mM acetate, pH 5.6) and injected until the appropriate immobilization level was reached (i.e. 2000 RU). Deactivation of the remaining activated groups was performed using 100 mM ethanolamine pH 8 (Biacore GE Healthcare).
Monovalent affinity study was conducted following a regular Capture-Kinetic protocol recommended by the manufacturer (Biacore GE Healthcare kinetic wizard). Seven serial dilutions of human NKp46 recombinant proteins, ranging from 6.25 to 400 nM were sequentially injected over the captured Bi-Specific antibodies and allowed to dissociate for 10 min before regeneration. The entire sensorgram sets were fitted using the 1:1 kinetic binding model.
(In general: Surface plasmon resonance follows binding to a sensor surface in real time, without labels.)

For assay [2], the target named is T2, human FcRn (human, UniProt P55899 24-297; P61769 21-119, limits assumed).
T2 construct: also called recombinant FcRn proteins
In words: SPR, recombinant human FcRn immobilized on chip; Steady State.

T1 sequence (O76036 22-258 limits assumed): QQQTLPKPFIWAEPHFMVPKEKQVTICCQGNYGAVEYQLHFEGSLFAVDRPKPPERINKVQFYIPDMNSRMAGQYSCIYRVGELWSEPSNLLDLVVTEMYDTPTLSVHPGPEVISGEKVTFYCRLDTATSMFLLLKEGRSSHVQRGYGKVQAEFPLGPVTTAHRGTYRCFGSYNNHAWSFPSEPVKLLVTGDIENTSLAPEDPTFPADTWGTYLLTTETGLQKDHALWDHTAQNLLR
T2 sequence (P55899 24-297 limits assumed, chain 1 of 2): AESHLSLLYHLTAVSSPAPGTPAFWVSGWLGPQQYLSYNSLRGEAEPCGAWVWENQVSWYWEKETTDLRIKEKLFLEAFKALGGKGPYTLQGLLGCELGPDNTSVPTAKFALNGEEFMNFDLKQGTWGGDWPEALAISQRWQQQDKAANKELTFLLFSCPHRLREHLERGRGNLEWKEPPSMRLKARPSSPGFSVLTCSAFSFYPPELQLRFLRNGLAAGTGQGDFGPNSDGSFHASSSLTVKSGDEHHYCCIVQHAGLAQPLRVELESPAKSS
T2 sequence (P61769 21-119 limits assumed, chain 2 of 2): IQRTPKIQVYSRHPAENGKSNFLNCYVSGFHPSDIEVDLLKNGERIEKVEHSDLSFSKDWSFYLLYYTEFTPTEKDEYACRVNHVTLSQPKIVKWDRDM

B1: CD19-F9A-NKp46-3 (bispecific antibody, human IgG1, kappa)
chain 1: not shown
chain 2: DIVMTQSPATLSVTPGDRVSLSCRASQSISDYLHWYQQKSHESPRLLIKYASQSISGIPSRFSGSGSGSDFTLSINSVEPEDVGVYYCQNGHSFPLTFGAGTKLELKASTKGPSVFPLAPSSKSTSGGTAALGCLVKDYFPEPVTVSWNSGALTSGVHTFPAVLQSSGLYSLSSVVTVPSSSLGTQTYICNVNHKPSNTKVDKRVEPKSCDKTH
chain 3: not shown
notes: Heterotrimer, monomeric Fc with tandem CH3, N297S, wild-type hinge cysteines
As to B1, in assay [1], the Kd was found to be 32 nM, the koff is 0.00669 s⁻¹ and the kon came to 207000 M⁻¹ s⁻¹. Moreover, the Kd in assay [2] came out at 858 nM.
